For the experiment, the target named is PpiC of E. faecium (mature PpiC, residues 25–336) (E. faecium). Kind of experiment: SEC-MALS; SEC coupled to light scattering (SEC-LS); 500 micrograms loaded on Superdex 200 increase 10/300 GL (PpiC) or Superdex 75 increase 10/300 GL (PpiC^ΔC); 50 mM Tris-HCl, 150 mM NaCl, 5% glycerol, pH 7.8; 0.5 mL/min. (Size exclusion chromatography separates by hydrodynamic size, large species first.)

As usually defined, the stoichiometry N is the number of molecules, sites or subunits per partner or assembly.

Turning to “PpiC of E. faecium (mature PpiC, residues 25–336) (enzyme)”, the stoichiometry N stood at 2.
